Measurements: patent US20210246166A1 (Bayer, published 2021)
Bridge positions count the residues as written; N and C are the ends. Square brackets hold non-standard residues; d marks the D form. Ends that are not written are not given here. * marks the point of attachment. Oic = O=C(O)[C@@H]1C[C@@H]2CCCC[C@@H]2N1; Butanoyl(3,3-Me2) = CC(C)(C)CC(=O)*; aIle = CC[C@@H](C)[C@H](N)C(=O)O; tBuAla = CC(C)(C)C[C@H](N)C(=O)O; Abu(4-CN) = N#CCC[C@H](N)C(=O)O; Pen = CC(C)(S)[C@H](N)C(=O)O; Phg = N[C@H](C(=O)O)c1ccccc1; Tranexamic = tranexamic acid; NMeC = CN[C@@H](CS)C(=O)O; PEG2 = NCCOCCOCCC(=O)O; Sar = CNCC(=O)O

T1: recombinant human MASP1 active protease (amino acids 297-699, C-terminal His Tag) (human, UniProt P48740 297-699)
T1 sequence: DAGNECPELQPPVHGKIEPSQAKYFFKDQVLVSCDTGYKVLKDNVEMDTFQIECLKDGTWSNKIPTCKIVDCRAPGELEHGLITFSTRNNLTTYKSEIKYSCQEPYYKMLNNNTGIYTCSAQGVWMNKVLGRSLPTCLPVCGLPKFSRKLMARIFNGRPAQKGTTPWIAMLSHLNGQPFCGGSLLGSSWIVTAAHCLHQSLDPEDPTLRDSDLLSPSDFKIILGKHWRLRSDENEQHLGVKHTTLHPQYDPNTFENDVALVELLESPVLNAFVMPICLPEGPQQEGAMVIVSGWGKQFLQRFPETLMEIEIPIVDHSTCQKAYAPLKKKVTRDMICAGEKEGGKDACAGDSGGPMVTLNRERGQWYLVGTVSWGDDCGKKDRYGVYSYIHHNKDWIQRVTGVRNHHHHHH


Columns and labels:
[1] = target: T1, recombinant human MASP1 active protease …; experiment: cell-based or functional assay
[2] = target: recombinant human MASP2 active protease (amino acids 297-686, C-terminal His Tag) (human, UniProt O00187 297-686); experiment: cell-based or functional assay
recombinant human MASP2 active protease (amino acids 297-686, C-terminal His Tag), sequence (O00187 other isoform, or with tags, fused parts or gaps limits assumed): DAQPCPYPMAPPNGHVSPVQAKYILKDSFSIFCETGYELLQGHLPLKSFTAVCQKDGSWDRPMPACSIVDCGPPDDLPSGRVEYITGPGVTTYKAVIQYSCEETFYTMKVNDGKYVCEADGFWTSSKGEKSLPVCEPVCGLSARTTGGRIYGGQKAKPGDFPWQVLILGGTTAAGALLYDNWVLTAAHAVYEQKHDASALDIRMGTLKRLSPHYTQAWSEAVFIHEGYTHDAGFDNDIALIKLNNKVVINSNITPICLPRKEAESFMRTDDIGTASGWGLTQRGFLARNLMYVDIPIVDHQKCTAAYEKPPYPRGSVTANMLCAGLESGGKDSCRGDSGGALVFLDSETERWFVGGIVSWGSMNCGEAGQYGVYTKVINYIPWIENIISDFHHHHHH

| Binder | human MASP1 IC50 [1] | human MASP2 IC50 [2] |
| --- | --- | --- |
| [tBuAla]GICSRSLP[Oic]I[Pen]IP-NH2 (disulfide 4-12; N-terminus assumed; SMILES CC[C@H](C)[C@H](NC(=O)CNC(=O)[C@@H](N)CC(C)(C)C)C(=O)N[C@H]1CSSC(C)(C)[C@@H](C(=O)N[C@H](C(=O)N2CCC[C@H]2C(N)=O)[C@@H](C)CC)NC(=O)[C@H]([C@@H](C)CC)NC(=O)[C@@H]2C[C@@H]3CCCC[C@@H]3N2C(=O)[C@@H]2CCCN2C(=O)[C@H](CC(C)C)NC(=O)[C@H](CO)NC(=O)[C@H](CCCNC(=N)N)NC(=O)[C@H](CO)NC1=O) [Example 322: ((tBu)A)-GIC+SRSLP-(Oic)-I-(Pen)+IP-NH2] | 0.022 µM | 0.15 µM |
| [Sar]ICSRSLPPIC[Phg]PD-OH (disulfide 3-11; N-terminus assumed; SMILES CC[C@H](C)[C@H](NC(=O)CNC)C(=O)N[C@H]1CSSC[C@@H](C(=O)N[C@H](C(=O)N2CCC[C@H]2C(=O)N[C@@H](CC(=O)O)C(=O)O)c2ccccc2)NC(=O)[C@H]([C@@H](C)CC)NC(=O)[C@@H]2CCCN2C(=O)[C@@H]2CCCN2C(=O)[C@H](CC(C)C)NC(=O)[C@H](CO)NC(=O)[C@H](CCCNC(=N)N)NC(=O)[C@H](CO)NC1=O) [Example 325: ((N-Me)G)-IC+SRSLPPIC+(Phg)-PD-OH] | 0.023 µM | 0.45 µM |
| [Sar]ICSRSLP[(1R,3S,5R)‑2‑Azabicyclo(3.1.0)hexane‑3‑carboxylic acid]ICIPD-OH (disulfide 3-11) [Example 324: ((N-Me)G)-IC+SRSLP-((1R,3S,5R)-2-Azabicyclo[3.1.0]hexane-3-carboxylic acid)-IC+IPD-OH] | 0.023 µM | 0.072 µM |
| [Sar]ICSRSLPPICIPD-OH (disulfide 3-11; also: HCl salt) [Example 318: ((N-Me)G)-IC+SRSLPPIC+IPD-OH (HCl- Salt)] | 0.022 µM | 0.61 µM |
| {Butanoyl(3,3-Me2)}-ICSRS[tBuAla]PPI[NMeC]I-NH2 (disulfide 2-10; SMILES CC[C@H](C)[C@H](NC(=O)[C@@H]1CSSC[C@H](NC(=O)[C@@H](NC(=O)CC(C)(C)C)[C@@H](C)CC)C(=O)N[C@@H](CO)C(=O)N[C@@H](CCCNC(=N)N)C(=O)N[C@@H](CO)C(=O)N[C@@H](CC(C)(C)C)C(=O)N2CCC[C@H]2C(=O)N2CCC[C@H]2C(=O)N[C@@H]([C@@H](C)CC)C(=O)N1C)C(N)=O) [Example 333: (tert-Butylacetic acid)-IC+SRS-((tBu)A)-PPI-((N-Me)C)+I-NH2] | 0.025 µM | 0.0084 µM |
| [PEG2]AICSRS[tBuAla]PPI[Pen]IPD-NH2 (disulfide 4-12; N-terminus assumed; SMILES CC[C@H](C)[C@H](NC(=O)[C@H](C)NC(=O)CCOCCOCCN)C(=O)N[C@H]1CSSC(C)(C)[C@@H](C(=O)N[C@H](C(=O)N2CCC[C@H]2C(=O)N[C@@H](CC(=O)O)C(N)=O)[C@@H](C)CC)NC(=O)[C@H]([C@@H](C)CC)NC(=O)[C@@H]2CCCN2C(=O)[C@@H]2CCCN2C(=O)[C@H](CC(C)(C)C)NC(=O)[C@H](CO)NC(=O)[C@H](CCCNC(=N)N)NC(=O)[C@H](CO)NC1=O) [Example 320: (PEG1(10 atoms))-AIC+SRS-((tBu)A)-PPI-(Pen)+IPD-NH2] | 0.022 µM | 0.19 µM |
| A[aIle]CSRSLPPICIPD-NH2 (disulfide 3-11; N-terminus assumed; SMILES CC[C@@H](C)[C@H](NC(=O)[C@H](C)N)C(=O)N[C@H]1CSSC[C@@H](C(=O)N[C@H](C(=O)N2CCC[C@H]2C(=O)N[C@@H](CC(=O)O)C(N)=O)[C@@H](C)CC)NC(=O)[C@H]([C@@H](C)CC)NC(=O)[C@@H]2CCCN2C(=O)[C@@H]2CCCN2C(=O)[C@H](CC(C)C)NC(=O)[C@H](CO)NC(=O)[C@H](CCCNC(=N)N)NC(=O)[C@H](CO)NC1=O) [Example 331: A-(allo-I)C+SRSLPPIC+IPD-NH2] | 0.024 µM | 0.61 µM |
| GICSRSLP[Oic]ICIPD-OH (disulfide 3-11; N-terminus assumed; SMILES CC[C@H](C)[C@H](NC(=O)CN)C(=O)N[C@H]1CSSC[C@@H](C(=O)N[C@H](C(=O)N2CCC[C@H]2C(=O)N[C@@H](CC(=O)O)C(=O)O)[C@@H](C)CC)NC(=O)[C@H]([C@@H](C)CC)NC(=O)[C@@H]2C[C@@H]3CCCC[C@@H]3N2C(=O)[C@@H]2CCCN2C(=O)[C@H](CC(C)C)NC(=O)[C@H](CO)NC(=O)[C@H](CCCNC(=N)N)NC(=O)[C@H](CO)NC1=O) [Example 323: GIC+SRSLP-(Oic)-IC+IPD-OH] | 0.00696 µM | 0.56 µM |
| [tBuAla]ICSRSLP[Oic]I[Pen]IP-OH (disulfide 3-11; N-terminus assumed; SMILES CC[C@H](C)[C@H](NC(=O)[C@@H](N)CC(C)(C)C)C(=O)N[C@H]1CSSC(C)(C)[C@@H](C(=O)N[C@H](C(=O)N2CCC[C@H]2C(=O)O)[C@@H](C)CC)NC(=O)[C@H]([C@@H](C)CC)NC(=O)[C@@H]2C[C@@H]3CCCC[C@@H]3N2C(=O)[C@@H]2CCCN2C(=O)[C@H](CC(C)C)NC(=O)[C@H](CO)NC(=O)[C@H](CCCNC(=N)N)NC(=O)[C@H](CO)NC1=O) [Example 335: ((tBu)A)-IC+SRSLP-(Oic)-I-(Pen)+IP-OH] | 0.025 µM | 0.18 µM |
| [Sar]ICSRS[Abu(4-CN)]PPI[Pen]IPD-NH2 (disulfide 3-11; N-terminus assumed; SMILES CC[C@H](C)[C@H](NC(=O)CNC)C(=O)N[C@H]1CSSC(C)(C)[C@@H](C(=O)N[C@H](C(=O)N2CCC[C@H]2C(=O)N[C@@H](CC(=O)O)C(N)=O)[C@@H](C)CC)NC(=O)[C@H]([C@@H](C)CC)NC(=O)[C@@H]2CCCN2C(=O)[C@@H]2CCCN2C(=O)[C@H](CCC#N)NC(=O)[C@H](CO)NC(=O)[C@H](CCCNC(=N)N)NC(=O)[C@H](CO)NC1=O) [Example 321: ((N-Me)G)-IC+SRS-(Cnba)-PPI-(Pen)+IPD-NH2] | 0.022 µM | 1.8 µM |
| [Sar]ICSRSLPPICID-NH2 (disulfide 3-11; N-terminus assumed; SMILES CC[C@H](C)[C@H](NC(=O)CNC)C(=O)N[C@H]1CSSC[C@@H](C(=O)N[C@H](C(=O)N[C@@H](CC(=O)O)C(N)=O)[C@@H](C)CC)NC(=O)[C@H]([C@@H](C)CC)NC(=O)[C@@H]2CCCN2C(=O)[C@@H]2CCCN2C(=O)[C@H](CC(C)C)NC(=O)[C@H](CO)NC(=O)[C@H](CCCNC(=N)N)NC(=O)[C@H](CO)NC1=O) [Example 317: ((N-Me)G)-IC+SRSLPPIC+ID-NH2] | 0.022 µM | 0.21 µM |
| ICSRSLP[Oic]I[Pen]IP-NH2 (disulfide 2-10; N-terminus assumed; SMILES CC[C@H](C)[C@H](N)C(=O)N[C@H]1CSSC(C)(C)[C@@H](C(=O)N[C@H](C(=O)N2CCC[C@H]2C(N)=O)[C@@H](C)CC)NC(=O)[C@H]([C@@H](C)CC)NC(=O)[C@@H]2C[C@@H]3CCCC[C@@H]3N2C(=O)[C@@H]2CCCN2C(=O)[C@H](CC(C)C)NC(=O)[C@H](CO)NC(=O)[C@H](CCCNC(=N)N)NC(=O)[C@H](CO)NC1=O) [Example 336: IC+SRSLP-(Oic)-I-(Pen)+IP-NH2] | 0.025 µM | 0.69 µM |
| [(2S,3S)‑2‑((3R)-3-Amino-2-oxopyrrolidin-1-yl)‑3‑methylpentanoic acid]CSRSLPPICIAD-OH (disulfide 2-10) | 0.026 µM | 0.36 µM |
| [Sar]ICSRSLPPICI[Sar]D-OH (disulfide 3-11; N-terminus assumed; SMILES CC[C@H](C)[C@H](NC(=O)CNC)C(=O)N[C@H]1CSSC[C@@H](C(=O)N[C@H](C(=O)N(C)CC(=O)N[C@@H](CC(=O)O)C(=O)O)[C@@H](C)CC)NC(=O)[C@H]([C@@H](C)CC)NC(=O)[C@@H]2CCCN2C(=O)[C@@H]2CCCN2C(=O)[C@H](CC(C)C)NC(=O)[C@H](CO)NC(=O)[C@H](CCCNC(=N)N)NC(=O)[C@H](CO)NC1=O) [Example 329: ((N-Me)G)-IC+SRSLPPIC+I-((N-Me)G)-D-OH] | 0.024 µM | 0.26 µM |
| ICSRS[tBuAla]PPI[Pen]IP-NH2 (disulfide 2-10; N-terminus assumed; SMILES CC[C@H](C)[C@H](N)C(=O)N[C@H]1CSSC(C)(C)[C@@H](C(=O)N[C@H](C(=O)N2CCC[C@H]2C(N)=O)[C@@H](C)CC)NC(=O)[C@H]([C@@H](C)CC)NC(=O)[C@@H]2CCCN2C(=O)[C@@H]2CCCN2C(=O)[C@H](CC(C)(C)C)NC(=O)[C@H](CO)NC(=O)[C@H](CCCNC(=N)N)NC(=O)[C@H](CO)NC1=O) [Example 316: IC+SRS-((tBu)A)-PPI-(Pen)+IP-NH2] | 0.021 µM | 0.66 µM |
| AICSRSLP[3,3‑dimethyl‑1,3‑azasilolidine‑5‑carboxylic acid]ICIPD-NH2 (disulfide 3-11) [Example 326: AIC+SRSLP-(3,3-dimethyl-1,3-azasilolidine-5-carboxylic acid)-IC+IPD-NH2] | 0.023 µM | 0.71 µM |
| AICSRS[(2S)‑2‑Amino‑4,4,4‑trifluorobutanoic acid]PPI[NMeC]IPD-NH2 (disulfide 3-11) [Example 337: AIC+SRS-((2S)-2-Amino-4,4,4-trifluorobutanoic acid)-PPI-((N-Me)C)+IPD-NH2] | 0.025 µM | 2 µM |
| [Tranexamic]ICSRS[tBuAla]PPI[NMeC]IPD-NH2 (disulfide 3-11) [Example 319: (Tranexamic)-IC+SRS-((tBu)A)-PPI-((N-Me)C)+IPD-NH2] | 0.022 µM | 0.018 µM |
